Laboratory results: publication PMC10667928

Experiments:
[1] = target: Xiphophorus multilineatus melanocortin 4 receptor, mutant B1 allele (Mc4r B1) (X. multilineatus); experiment: FRET or BRET; FRET-FLIM data of the fixed cells sorted by stoichiometry (<0.3, 0.3-0.5, 0.5-0.7, >0.7); dimerization grade by equation (8): β1AR as monomer baseline, CD28 at stoichiometry <0.3 as 100%
[2] = target: Xiphophorus multilineatus melanocortin 4 receptor, mutant B2 allele (Mc4r B2) (X. multilineatus); experiment: as above
[3] = target: Xiphophorus multilineatus melanocortin 4 receptor, wild-type A allele (Mc4r A) (X. multilineatus); experiment: as above
[4] = target: Xiphophorus multilineatus melanocortin 4 receptor, mutant B1 allele (Mc4r B1) (X. multilineatus); experiment: FRET or BRET; FRET-FLIM (pulsed interleaved excitation) on fixed HEK293T cells, basal or apical membrane; first-named protomer with C-terminal eGFP (donor, written as binder), second with C-terminal mCherry (acceptor, written as target); donor/acceptor ratio 1:1 at transfection; lifetime-based FRET efficiency Eτ against donor-only samples
[5] = target: Xiphophorus multilineatus melanocortin 4 receptor, wild-type A allele (Mc4r A) (X. multilineatus); experiment: as above
[6] = target: Xiphophorus multilineatus melanocortin 4 receptor, mutant B1 allele (Mc4r B1) (X. multilineatus); experiment: FRET or BRET; FRET-FLIM (pulsed interleaved excitation) on fixed HEK293T cells, basal or apical membrane; first-named protomer with C-terminal eGFP (donor, written as binder), second with C-terminal mCherry (acceptor, written as target); donor/acceptor ratio 1:5 at transfection; lifetime-based FRET efficiency Eτ against donor-only samples
[7] = target: Xiphophorus multilineatus melanocortin 4 receptor, mutant B2 allele (Mc4r B2) (X. multilineatus); experiment: as above
[8] = target: Xiphophorus multilineatus melanocortin 4 receptor, wild-type A allele (Mc4r A) (X. multilineatus); experiment: as above
[9] = target: human chimeric MC4R chim7 (named Mut in this study) (human) (UniProt P32245); experiment: as above

Row | Substance | dimerization grade at stoichiometry 0.3-0.5 [1] | dimerization grade at stoichiometry <0.3 [1] | dimerization grade at stoichiometry 0.3-0.5 [2] | dimerization grade at stoichiometry <0.3 [2] | dimerization grade at stoichiometry 0.3-0.5 [3] | dimerization grade at stoichiometry <0.3 [3] | FRET efficiency Eτ [4] | FRET efficiency Eτ [5] | donor (eGFP) lifetime; donor-only 2.13 ns [5] | FRET efficiency Eτ [6] | FRET efficiency Eτ [7] | FRET efficiency Eτ [8] | donor (eGFP) lifetime; donor-only 2.13 ns [8] | FRET efficiency Eτ [9]
1 | Xiphophorus multilineatus melanocortin 4 receptor, wild-type A allele (Mc4r A) | 28% | 52% | 28% | 52% | 26% | 76% | 15.4% | 12.7% | 1.85 ns | 21.6% | 23.8% | 26.1% | 1.57 ns | 
2 | human MC4R wild-type (from UniProt P32245 1-332) (receptor) |  |  |  |  |  |  |  |  |  |  |  |  |  | 19.6%
